Here are results for 3 molecules from publication PMC2940942 (Journal of Molecular Biology, 2009).

The data set “SEC” deals with the molecule itself. Description: SEC.
Data set [1] has as its target T1, cyclophilin A (UniProt P62937 1-165). Nature of the data set: NMR titration.
In data set [2] the target is T1, cyclophilin A. Description: NMR titration. The source holds these as a separate data set.

Read-outs that look alike come from different tables or passages of the source. Some results are limits rather than exact numbers.

B1: CD147^22–269 (isoform 2 without the signal peptide) (receptor)
chain: AAGTVFTTVEDLGSKILLTCSLNDSATEVTGHRWLKGGVVLKEDALPGQKTEFKVDSDDQWGEYSCVFLPEPMGTANIQLHGPPRVKAVKSSEHINEGETAMLVCKSESVPPVTDWAWYKITDSEDKALMNGSESRFFVSSSQGRSELHIENLNMEADPGQYRCNGTSSKGSDQAIITLRVRSHLAALWPFLGIVAEVLVLVTIIFIYEKRRKPEDVLDDDDAGSAPLKSSGQHQNDKGKNVRQRNSS
As for B1, in “SEC”, the binding result is listed as “binds”.

B2: CD147^22–214 (domain or fragment)
chain: AAGTVFTTVEDLGSKILLTCSLNDSATEVTGHRWLKGGVVLKEDALPGQKTEFKVDSDDQWGEYSCVFLPEPMGTANIQLHGPPRVKAVKSSEHINEGETAMLVCKSESVPPVTDWAWYKITDSEDKALMNGSESRFFVSSSQGRSELHIENLNMEADPGQYRCNGTSSKGSDQAIITLRVRSHLAALWPFLG
For B2, the Kd (usually the free concentration of one partner at which half of the binding sites on the other are occupied at equilibrium, for simple one-to-one binding) with cyclophilin A [1] was > 1 mM.

B3: CD147^10mer peptide (CD147 residues 205–214) (peptide)
peptide: GSHLAALWPFLG
B3: the Kd with cyclophilin A [2] came to 4.2 ± 0.2 mM.
